The results in this text go back to patent US20170158755A1 (PROTHENA BIOSCIENCES, published 2017).

Assay in all cases: flow cytometry, 650-labeled MCAM-Fc on 293 cells displaying the variant
(In general: A flow cytometer gives signals particle by particle.)

The target of test [1] is T1, LGde1, human LAMA4 G domain with LG1 deleted, displayed on 293 cells (human, UniProt Q16363 1036-1821).
T1 construct: pDisplay construct on 293 cells; vector tags and anchor not written here; also called LGde 1 (LG23)
T1 sequence: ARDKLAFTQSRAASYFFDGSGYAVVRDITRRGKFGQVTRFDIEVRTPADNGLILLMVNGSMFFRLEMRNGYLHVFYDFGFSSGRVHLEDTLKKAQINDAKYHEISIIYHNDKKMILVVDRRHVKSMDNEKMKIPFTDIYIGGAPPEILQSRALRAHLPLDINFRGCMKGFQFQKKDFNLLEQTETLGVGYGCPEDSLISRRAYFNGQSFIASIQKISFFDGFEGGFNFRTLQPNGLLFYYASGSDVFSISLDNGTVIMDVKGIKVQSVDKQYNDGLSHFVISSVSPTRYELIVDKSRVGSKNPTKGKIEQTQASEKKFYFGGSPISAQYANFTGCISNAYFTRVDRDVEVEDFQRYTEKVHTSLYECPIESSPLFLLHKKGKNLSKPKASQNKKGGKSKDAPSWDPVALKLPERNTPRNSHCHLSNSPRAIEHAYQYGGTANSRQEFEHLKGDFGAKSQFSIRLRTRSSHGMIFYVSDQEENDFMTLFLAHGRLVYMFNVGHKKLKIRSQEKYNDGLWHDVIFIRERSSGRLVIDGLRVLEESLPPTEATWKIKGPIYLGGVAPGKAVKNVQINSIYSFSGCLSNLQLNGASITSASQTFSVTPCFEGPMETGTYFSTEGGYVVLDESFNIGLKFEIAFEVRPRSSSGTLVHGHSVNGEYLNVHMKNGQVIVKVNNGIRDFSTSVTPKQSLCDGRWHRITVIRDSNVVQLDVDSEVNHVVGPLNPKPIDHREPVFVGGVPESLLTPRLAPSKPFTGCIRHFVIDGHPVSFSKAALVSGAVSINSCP
An excerpt: (§1) LGde1 has a full-length G domain (i.e., LG1-5) with LG1 deleted, LGde2 has a full-length G domain with LG2 deleted, and LGde3 has a full-length G domain with LG3 deleted. Recombinant MCAM-Fc protein was able to specifically bind 293 cells expressing LAMA4 variants LG1-5, LG1-3, and LGde 1 (LG23), but not 293 cells expressing LAMA 4 variants LG4-5, LGde2 (LG13), or LGde3 (LG12).

For test [2], the target named is T2, LGde2, human LAMA4 G domain with LG2 deleted, displayed on 293 cells (human, UniProt Q16363 830-1821, limits assumed).
T2 construct: pDisplay construct on 293 cells; vector tags and anchor not written here; also called LGde2 (LG13)
T2 sequence: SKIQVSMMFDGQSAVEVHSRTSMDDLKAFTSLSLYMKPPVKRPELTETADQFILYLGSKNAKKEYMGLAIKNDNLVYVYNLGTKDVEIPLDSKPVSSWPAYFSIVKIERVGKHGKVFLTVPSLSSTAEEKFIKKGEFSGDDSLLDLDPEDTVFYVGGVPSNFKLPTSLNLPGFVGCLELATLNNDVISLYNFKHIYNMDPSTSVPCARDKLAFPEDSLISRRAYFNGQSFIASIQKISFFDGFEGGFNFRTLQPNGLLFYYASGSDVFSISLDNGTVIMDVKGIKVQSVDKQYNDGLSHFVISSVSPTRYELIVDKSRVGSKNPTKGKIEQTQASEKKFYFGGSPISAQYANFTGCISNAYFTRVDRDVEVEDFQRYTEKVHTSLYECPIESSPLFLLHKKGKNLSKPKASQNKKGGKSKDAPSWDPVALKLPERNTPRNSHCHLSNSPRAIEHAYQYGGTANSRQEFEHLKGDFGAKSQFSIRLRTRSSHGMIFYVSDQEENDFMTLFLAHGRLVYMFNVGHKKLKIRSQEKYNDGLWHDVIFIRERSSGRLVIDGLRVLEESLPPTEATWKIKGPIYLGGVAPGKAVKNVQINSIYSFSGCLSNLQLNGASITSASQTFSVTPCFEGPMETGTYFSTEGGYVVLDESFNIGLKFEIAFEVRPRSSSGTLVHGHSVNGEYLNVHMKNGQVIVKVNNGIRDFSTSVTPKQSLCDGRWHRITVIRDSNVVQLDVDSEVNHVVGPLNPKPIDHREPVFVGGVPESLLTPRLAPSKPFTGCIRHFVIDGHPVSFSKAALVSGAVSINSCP
From the text: as §1

Test [3] deals with T3, LGde3, human LAMA4 G domain with LG3 deleted, displayed on 293 cells (human, UniProt Q16363 830-1821, limits assumed).
T3 construct: pDisplay construct on 293 cells; vector tags and anchor not written here; also called LGde3 (LG12); LGde3 (LG23)
T3 sequence: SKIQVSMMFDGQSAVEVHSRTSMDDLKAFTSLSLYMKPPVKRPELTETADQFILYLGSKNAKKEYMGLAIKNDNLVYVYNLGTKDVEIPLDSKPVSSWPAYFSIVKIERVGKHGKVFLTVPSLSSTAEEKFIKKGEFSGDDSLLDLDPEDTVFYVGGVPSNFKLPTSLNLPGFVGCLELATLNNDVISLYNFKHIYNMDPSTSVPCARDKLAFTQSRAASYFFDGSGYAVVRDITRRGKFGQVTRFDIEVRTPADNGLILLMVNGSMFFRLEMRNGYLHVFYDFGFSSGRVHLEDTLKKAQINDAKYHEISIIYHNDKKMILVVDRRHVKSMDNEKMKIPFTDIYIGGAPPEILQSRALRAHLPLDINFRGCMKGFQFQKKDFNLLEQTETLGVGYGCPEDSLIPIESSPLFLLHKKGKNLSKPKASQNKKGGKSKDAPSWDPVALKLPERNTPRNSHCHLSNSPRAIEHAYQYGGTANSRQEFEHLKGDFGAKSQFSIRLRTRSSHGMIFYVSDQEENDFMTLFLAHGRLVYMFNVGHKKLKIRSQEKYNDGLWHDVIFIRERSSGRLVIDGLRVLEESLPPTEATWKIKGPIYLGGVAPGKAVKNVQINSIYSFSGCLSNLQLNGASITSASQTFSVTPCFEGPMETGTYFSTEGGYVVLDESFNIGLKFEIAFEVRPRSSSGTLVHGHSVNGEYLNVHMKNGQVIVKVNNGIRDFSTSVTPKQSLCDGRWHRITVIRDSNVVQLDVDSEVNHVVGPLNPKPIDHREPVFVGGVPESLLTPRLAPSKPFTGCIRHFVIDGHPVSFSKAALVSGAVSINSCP
From the text: as §1

B1: mouse MCAM-Fc fusion protein (Fc fusion, UniProt Q8R2Y2 24-563, looked up)
chain: VPGEEKQPVPTPDLVEAEVGSTALLKCGPSRASGNFSQVDWFLIHKERQILIFRVHQGKGQREPGEYEHRLSLQDSVATLALSHVTPHDERMFLCKSKRPRLQDHYVELQVFKAPEEPTIQANVVGIHVDRQELREVATCVGRNGYPIPQVLWYKNSLPLQEEENRVHIQSSQIVESSGLYTLKSVLSARLVKEDKDAQFYCELSYRLPSGNHMKESKEVTVPVFYPAEKVWVEVEPVGLLKEGDHVTIRCLTDGNPQPHFTINKKDPSTGEMEEESTDENGLLSLEPAEKHHSGLYQCQSLDLETTITLSSDPLELLVNYVSDVQVNPTAPEVQEGESLTLTCEAESNQDLEFEWLRDKTGQLLGKGPVLQLNNVRREAGGRYLCMASVPRVPGLNRTQLVSVGIFGSPWMALKERKVWVQENAVLNLSCEASGHPQPTISWNVNGSATEWNPDPQTVVSTLNVLVTPELLETGAECTASNSLGSNTTTIVLKLVTLTTLIPDSSQTTGLSTLTVSPHTRANSTSTEKKLPQPESKGVV
notes: extracellular domain; Made in house; also called mMCAM-Fc; 650-conjugated mouse MCAM-Fc; not shown: human IgG1 (Fc part of the fusion)
Regarding B1, the binding result in test [1] was “binds”; in test [2], “no binding”; in test [3], “no binding”.
